Target: T1, replication/repair factor RPA1 (human, UniProt P27694 1-616)
T1 construct: Endogenous protein in extracts of human TTD-A fibroblasts
Assay: anti-HA immunoprecipitation from extracts of TTD-A fibroblasts expressing p8-HA, immunoblot
Source text: We cloned the human TFB5 cDNA from primary fibroblasts by virtue of its homology with yeast TFB5 using conventional techniques known in the art. An HA-tagged version of hTFB5 (p8-HA) was constructed via conventional molecular cloning methods (Maniatis et al, supra) and expressed in TTD-A fibroblasts and subsequently used for immuno-precipitations with anti-HA (FIG. 1a). Both the XPB core TFIIH and the associated CAK component (CDK7) were co-precipitated with p8-HA, in contrast to replication/repair factor RPA1 (data not shown). Conversely, anti-p44 (another core-TFIIH component) co-precipitated p8-HA. We conclude that, analogous to yeast, this small polypeptide is associated with TFIIH in mammalian cells.
Immunoprecipitation and immunoblot analysis. Whole cell extracts from MRC5SV, TTD1BRSV and TTD1BRSV+hTFB5HA were prepared by isolating cells from 6 petri dishes per cell line (13 cm). Collected cell-pellets were washed once in PBS prior to lysis by douncing (20 strokes using a 12.61 mm dounce homogenizer, Bellco Glass, INC., USA) in 2 ml of buffer A (50 mM Tris pH 7.9; 150 mM NaCl; 20% Glycerol; 0.1% NP40; 5 mM β-mercaptoethanol) supplemented with anti-proteases. […]

T1 sequence (P27694 whole entry): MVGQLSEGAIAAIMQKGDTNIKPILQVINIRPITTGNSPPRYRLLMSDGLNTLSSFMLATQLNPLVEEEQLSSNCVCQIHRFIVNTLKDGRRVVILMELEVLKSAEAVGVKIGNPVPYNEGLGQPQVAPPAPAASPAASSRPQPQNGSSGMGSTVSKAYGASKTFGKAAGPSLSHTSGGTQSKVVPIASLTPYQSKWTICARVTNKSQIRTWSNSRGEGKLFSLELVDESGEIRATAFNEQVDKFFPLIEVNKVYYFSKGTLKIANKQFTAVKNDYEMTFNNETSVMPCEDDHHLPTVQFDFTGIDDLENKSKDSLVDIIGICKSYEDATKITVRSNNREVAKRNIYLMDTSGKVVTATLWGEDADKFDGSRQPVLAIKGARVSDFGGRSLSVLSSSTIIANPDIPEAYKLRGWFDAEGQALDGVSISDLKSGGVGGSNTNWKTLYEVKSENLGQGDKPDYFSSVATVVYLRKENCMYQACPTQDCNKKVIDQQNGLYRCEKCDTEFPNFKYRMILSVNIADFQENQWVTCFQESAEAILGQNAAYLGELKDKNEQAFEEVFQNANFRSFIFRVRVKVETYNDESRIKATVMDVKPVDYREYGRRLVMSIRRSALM

B1: HA-tagged version of hTFB5 (p8-HA) (other)
chain: MVNVLKGVLIECDPAMKQFLLYLDESNALGKKFIIQDIDDTHVFVIAELVNVLQERVGELMDQNAFSLTQK
notes: C-terminally HA-tagged TTDA cloned in pCDNA3 and expressed in TTD1BRSV (TTD-A) fibroblasts; tested in whole cell extracts; also called TTDA-HA; hTFB5HA; not shown: C-terminal HA tag
binding result: no binding

— patent US20060008875A1 (UNIVERSITAIR MEDISCH CENTRUM ROTTERDAM, published 2006)
